Experimental data from paper PMC5688999 (RNA, 2017).
No end group written: not given here.

T1: Mtr4-ΔN (helicase region of Mtr4, residues 81–1073) (S. cerevisiae, UniProt P47047 81-1073)
T1 sequence (looked up): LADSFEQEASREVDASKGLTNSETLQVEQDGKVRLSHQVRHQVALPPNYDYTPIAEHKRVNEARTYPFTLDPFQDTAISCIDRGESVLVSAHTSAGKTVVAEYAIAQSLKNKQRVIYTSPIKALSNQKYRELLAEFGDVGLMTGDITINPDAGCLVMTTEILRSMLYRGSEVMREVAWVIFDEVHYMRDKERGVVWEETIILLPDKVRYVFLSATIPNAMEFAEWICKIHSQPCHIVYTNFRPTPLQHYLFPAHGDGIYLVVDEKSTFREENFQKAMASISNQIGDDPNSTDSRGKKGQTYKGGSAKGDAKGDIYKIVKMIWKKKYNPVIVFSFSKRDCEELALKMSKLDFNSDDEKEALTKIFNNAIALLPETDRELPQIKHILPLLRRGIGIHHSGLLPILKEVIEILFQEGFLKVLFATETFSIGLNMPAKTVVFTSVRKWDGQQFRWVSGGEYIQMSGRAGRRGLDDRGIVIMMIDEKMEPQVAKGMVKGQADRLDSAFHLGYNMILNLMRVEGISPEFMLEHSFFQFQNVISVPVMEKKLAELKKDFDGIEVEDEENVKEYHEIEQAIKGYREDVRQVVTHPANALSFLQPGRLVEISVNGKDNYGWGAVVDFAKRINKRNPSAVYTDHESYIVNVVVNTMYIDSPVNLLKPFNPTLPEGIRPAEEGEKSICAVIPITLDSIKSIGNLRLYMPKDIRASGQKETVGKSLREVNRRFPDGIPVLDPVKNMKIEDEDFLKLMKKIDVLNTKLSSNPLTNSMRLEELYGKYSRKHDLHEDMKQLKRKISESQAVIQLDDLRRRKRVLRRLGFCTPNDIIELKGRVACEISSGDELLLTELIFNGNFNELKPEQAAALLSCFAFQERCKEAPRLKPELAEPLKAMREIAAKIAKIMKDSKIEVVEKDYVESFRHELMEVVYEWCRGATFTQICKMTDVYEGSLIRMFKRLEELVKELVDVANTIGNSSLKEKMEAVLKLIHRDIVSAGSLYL

T2: GST-tagged yeast Mtr4 short arch (GST-Mtr4^SA, residues 638–842), wild type (S. cerevisiae, UniProt P47047 638-842)
T2 sequence (looked up): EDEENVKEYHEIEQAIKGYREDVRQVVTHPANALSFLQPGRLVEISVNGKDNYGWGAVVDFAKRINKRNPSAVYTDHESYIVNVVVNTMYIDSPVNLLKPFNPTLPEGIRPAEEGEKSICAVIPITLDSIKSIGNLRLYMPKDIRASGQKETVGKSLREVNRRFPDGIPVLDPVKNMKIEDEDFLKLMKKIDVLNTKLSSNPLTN


Tests used:
[1] = biological target: T1, Mtr4-ΔN (helicase region of Mtr4, …); test: ITC
[2] = biological target: T2, GST-tagged yeast Mtr4 short arch …; test: pull-down

Row | Kd [1] [µM] | binding result [2] | Binder
1 | ~18 | – | DALFHVDVEGDEILKNKLIKRKQIKKVLKSKEIL (domain or fragment, S. cerevisiae, UniProt Q12080 58-91, looked up) [Nop53_(prot) (Nop53 residues 58–91)]
2 | – | binds | Z-tagged Nop53 (residues 48–99) (domain or fragment, S. cerevisiae, UniProt Q12080 48-99, looked up, also: Z-tagged) GTSDITSLQNDALFHVDVEGDEILKNKLIKRKQIKKVLKSKEILDAVKTNSK
3 | ~20 | – | HVNNDQLFFVDDGGNEDSQDKNEDTMDVDDEDD (domain or fragment, S. cerevisiae, UniProt P40362 78-110, looked up) [Utp18_(prot) (Utp18 residues 78–110)]
